Assay results: article PMC10368727, “Sequestration of histidine kinases by non-cognate response regulators establishes a threshold level of stimulation for bacterial two-component signaling” (Nature Communications, 2023)
Read-outs that look alike come from different tables or passages of the source.

B3: GFP-tagged MtrB, unphosphorylated (cytosolic catalytic domain) (domain or fragment)
chain: SRQVVVPVRSASRIAERFAEGHLSERMPVRGEDDMARLAVSFNDMAESLSRQIAQLEEFGNLQRRFTSDVSHELRTPLTTVRMAADLIYDHSADLDPTLRRSTELMVSELDRFETLLNDLLEISRHDAGVAELSVEAVDLRTTVNNALGNVGHLAEEAGIELLVDLPAEQVIAEVDARRVERILRNLIANAIDHAEHKPVRIRMAADEDTVAVTVRDYGVGLRPGEEKLVFSRFWRSDPSRVRRSGGTGLGLAISVEDARLHQGRLEAWGEPGEGACFRLTLPMVRGHKVTTSPLPMKPIPQPVLQPVAQPNPQPMPPEYKERQRPREHAEWSG
notes: also called MtrB-GFP
B4: phosphorylated, GFP-tagged HK MtrB (cytosolic catalytic domain) (domain or fragment)
chain: SRQVVVPVRSASRIAERFAEGHLSERMPVRGEDDMARLAVSFNDMAESLSRQIAQLEEFGNLQRRFTSDVSHELRTPLTTVRMAADLIYDHSADLDPTLRRSTELMVSELDRFETLLNDLLEISRHDAGVAELSVEAVDLRTTVNNALGNVGHLAEEAGIELLVDLPAEQVIAEVDARRVERILRNLIANAIDHAEHKPVRIRMAADEDTVAVTVRDYGVGLRPGEEKLVFSRFWRSDPSRVRRSGGTGLGLAISVEDARLHQGRLEAWGEPGEGACFRLTLPMVRGHKVTTSPLPMKPIPQPVLQPVAQPNPQPMPPEYKERQRPREHAEWSG
notes: also called MtrB~P; P~MtrB-GFP
B8: phosphorylated, GFP-tagged HK PhoR (cytosolic catalytic domain) (domain or fragment)
chain: RRSLRPLAEFEQTAAAIGAGQLDRRVPQWHPRTEVGRLSLALNGMLAQIQRAVASAESSAEKARDSEDRMRQFITDASHELRTPLTTIRGFAELYRQGAARDVGMLLSRIESEASRMGLLVDDLLLLARLDAHRPLELCRVDLLALASDAAHDARAMDPKRRITLEVLDGPGTPEVLGDESRLRQVLRNLVANAIQHTPESADVTVRVGTEGDDAILEVADDGPGMSQEDALRVFERFYRADSSRARASGGTGLGLSIVDSLVAAHGGAVTVTTALGEGCCFRVSLPRVSDVDQLSLTPVVPGPP
notes: also called PhoR-GFP; PhoR~P
B10: response regulator NarL (natural protein)
chain: MSNPQPEKVRVVVGDDHPLFREGVVRALSLSGSVNVVGEADDGAAALELIKAHLPDVALLDYRMPGMDGAQVAAAVRSYELPTRVLLISAHDEPAIVYQALQQGAAGFLLKDSTRTEIVKAVLDCAKGRDVVAPSLVGGLAGEIRQRAAPVAPVLSAREREVLNRIACGQSIPAIAAELYVAPSTVKTHVQRLYEKLGVSDRAAAVAEAMRQRLLD
notes: also called non-cognate RR NarL

Columns and labels:
Conditions in all cases: both partners purified
[1] = biological target: B3; assay: MST; GFP-tagged MtrB in the unphosphorylated state titrated with RR
[2] = biological target: B8
[3] = biological target: B4; assay: MST
[4] = biological target: T1, phosphorylated, histidine tag labeled HK PrrB (cytosolic catalytic domain) (M. tuberculosis, UniProt P9WGK7 172-446); assay: MST
T1 construct: also called PrrB~P
T1 sequence: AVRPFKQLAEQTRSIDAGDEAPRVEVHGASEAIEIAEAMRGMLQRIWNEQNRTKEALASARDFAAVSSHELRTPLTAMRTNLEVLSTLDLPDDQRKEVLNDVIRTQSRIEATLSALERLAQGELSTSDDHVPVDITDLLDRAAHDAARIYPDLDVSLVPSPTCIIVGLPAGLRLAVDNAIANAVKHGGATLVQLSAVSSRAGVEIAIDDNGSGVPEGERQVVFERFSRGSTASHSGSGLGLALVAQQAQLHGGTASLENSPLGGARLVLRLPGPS

response regulator PhoP [5] = biological target: T2, response regulator PhoP (M. tuberculosis, UniProt P71814 1-247); assay: MST; GFP-tagged MtrB in the unphosphorylated state titrated with RR
response regulator PhoP [6] = biological target: T2, response regulator PhoP
response regulator DevR = response regulator DevR (M. tuberculosis, UniProt P9WMF9 1-217); assay: MST
response regulator NarL = biological target: B10; assay: MST
[7] = biological target: T3, phosphorylated, histidine tag labeled HK KdpD (cytosolic catalytic domain) (M. tuberculosis, UniProt P9WGL3 532-860); assay: MST
T3 construct: also called KdpD~P
T3 sequence: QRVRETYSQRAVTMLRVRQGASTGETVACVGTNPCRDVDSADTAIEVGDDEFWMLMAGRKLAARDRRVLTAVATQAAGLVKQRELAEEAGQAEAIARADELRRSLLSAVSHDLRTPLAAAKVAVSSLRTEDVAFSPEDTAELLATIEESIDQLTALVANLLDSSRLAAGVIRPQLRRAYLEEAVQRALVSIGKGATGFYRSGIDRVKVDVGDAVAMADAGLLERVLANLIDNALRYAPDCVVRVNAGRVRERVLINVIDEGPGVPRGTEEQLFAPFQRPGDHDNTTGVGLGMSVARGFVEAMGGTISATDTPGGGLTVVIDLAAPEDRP

response regulator DevR, sequence (P9WMF9 whole entry): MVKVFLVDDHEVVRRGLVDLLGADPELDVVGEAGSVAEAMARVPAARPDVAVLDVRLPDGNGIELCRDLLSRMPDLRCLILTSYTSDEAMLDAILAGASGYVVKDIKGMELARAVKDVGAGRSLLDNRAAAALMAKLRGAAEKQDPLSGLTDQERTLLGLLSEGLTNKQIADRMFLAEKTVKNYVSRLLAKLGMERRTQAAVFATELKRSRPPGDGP

B1: response regulator TcrX (natural protein)
chain: MRRADGQPVTVLVVDDEPVLAEMVSMALRYEGWNITTAGDGSSAIAAARRQRPDVVVLDVMLPDMSGLDVLHKLRSENPGLPVLLLTAKDAVEDRIAGLTAGGDDYVTKPFSIEEVVLRLRALLRRTGVTTVDSGAQLVVGDLVLDEDSHEVMRAGEPVSLTSTEFELLRFMMHNSKRVLSKAQILDRVWSYDFGGRSNIVELYISYLRKKIDNGREPMIHTLRGAGYVLKPAR
With B1 as the binder, how does the Kd [1] read?
The Kd was 21.7 ± 5.02 µM.

What about the Kd [2] of the same binder?
Its Kd is 0.484 µM.

And the Kd [3]?
The Kd was 0.082 ± 0.012 µM.

B2: response regulator MprA (natural protein)
chain: MSVRILVVDDDRAVRESLRRSLSFNGYSVELAHDGVEALDMIASDRPDALVLDVMMPRLDGLEVCRQLRGTGDDLPILVLTARDSVSERVAGLDAGADDYLPKPFALEELLARMRALLRRTKPEDAAESMAMRFSDLTLDPVTREVNRGQRRISLTRTEFALLEMLIANPRRVLTRSRILEEVWGFDFPTSGNALEVYVGYLRRKTEADGEPRLIHTVRGVGYVLRETPP
For B2, which Kd [4] is on record?
Its Kd is 1.96 µM.

With B3 as the binder, how does the Kd (response regulator PhoP [5]) read?
The Kd was 18.1 ± 2.74 µM.

For B4, which Kd (response regulator PhoP [6]) is on record?
Its Kd is 3.58 ± 0.121 µM.

B5: response regulator MtrA (natural protein)
chain: MDTMRQRILVVDDDASLAEMLTIVLRGEGFDTAVIGDGTQALTAVRELRPDLVLLDLMLPGMNGIDVCRVLRADSGVPIVMLTAKTDTVDVVLGLESGADDYIMKPFKPKELVARVRARLRRNDDEPAEMLSIADVEIDVPAHKVTRNGEQISLTPLEFDLLVALARKPRQVFTRDVLLEQVWGYRHPADTRLVNVHVQRLRAKVEKDPENPTVVLTVRGVGYKAGPP
notes: also called cognate RR MtrA
B5 was tested. Which Kd [1] did it give?
The Kd was 0.936 ± 0.113 µM.

And the Kd [3]?
The Kd was 0.444 ± 0.117 µM.

B6: response regulator TcrA (natural protein)
chain: MADETTMRAGRGPGRACGRVSGVRILVVEDEPKMTALLARALTEEGHTVDTVADGRHAVAAVDGGDYDAVVLDVMLPGIDGFEVCARLRRQRVWTPVLMLTARGAVTDRIAGLDGGADDYLTKPFNLDELFARLRALSRRGPIPRPPTLEAGDLRLDPSEHRVWRADTEIRLSHKEFTLLEALIRRPGIVHTRAQLLERCWDAAYEARSNIVDVYIRYLRDKIDRPFGVTSLETIRGAGYRLRKDGGRHALPR
Which results are given for B6?
Kd [2]: 1.83 µM; Kd [3]: 3.07 ± 0.074 µM

B7: phosphorylated, histidine tag labeled HK DevS (cytosolic catalytic domain) (domain or fragment)
chain: LATSQRRMRELDVLTDRDRIARDLHDHVIQRLFAIGLALQGAVPHERNPEVQQRLSDVVDDLQDVIQEIRTTIYDLHGASQGITRLRQRIDAAVAQFADSGLRTSVQFVGPLSVVDSALADQAEAVVREAVSNAVRHAKASTLTVRVKVDDDLCIEVTDNGRGLPDEFTGSGLTNLRQRAEQAGGEFTLASVPGASGTVLRWSAPLSQ
notes: also called DevS~P
What does the source list for B7?
Kd (response regulator DevR): 13.2 µM; Kd (response regulator NarL): 0.325 µM

How did the Kd (response regulator PhoP [6]) turn out when B8 was run?
Its Kd is 1.49 µM.

B9: response regulator KdpE (natural protein)
chain: MTLVLVIDDEPQILRALRINLTVRGYQVITASTGAGALRAAAEHPPDVVILDLGLPDMSGIDVLGGLRGWLTAPVIVLSARTDSSDKVQALDAGADDYVTKPFGMDEFLARLRAAVRRNTAAAELEQPVIETDSFTVDLAGKKVIKDGAEVHLTPTEWGMLEMLARNRGKLVGRGELLKEVWGPAYATETHYLRVYLAQLRRKLEDDPSHPKHLLTESGMGYRFEA
How did the Kd [3] turn out when B9 was run?
Its Kd is 0.868 ± 0.1 µM.

What about the Kd [7] of the same binder?
The Kd was 4.49 µM.

With B10 as the binder, how does the Kd [1] read?
Its Kd is 0.402 ± 0.058 µM.

What about the Kd [3] of the same binder?
Its Kd is 0.083 ± 0.015 µM.

And the Kd [7]?
The Kd was 0.355 µM.

B11: response regulator PrrA (natural protein)
chain: MDTGVTSPRVLVVDDDSDVLASLERGLRLSGFEVATAVDGAEALRSATENRPDAIVLDINMPVLDGVSVVTALRAMDNDVPVCVLSARSSVDDRVAGLEAGADDYLVKPFVLAELVARVKALLRRRGSTATSSSETITVGPLEVDIPGRRARVNGVDVDLTKREFDLLAVLAEHKTAVLSRAQLLELVWGYDFAADTNVVDVFIGYLRRKLEAGGGPRLLHTVRGVGFVLRMQ
With B11 as the binder, how does the Kd [4] read?
The Kd was 4.31 µM.
